Measurements: publication PMC12747932, “Crystal structures of Kif2A complexed with WDR5 reveal the structural plasticity of WIN-S7 sites” (Acta Biochimica et Biophysica Sinica, 2025)
Each block holds one binder with its values, some of them ahead of it.

Experiments:
Test in all cases: ITC; peptide (approximately 1 mM) titrated into protein (0.05 mM), 20°C, Buffer E (20 mM Tris-HCl, 200 mM NaCl, pH 7.5), single binding site model, duplicate
Settings in all cases: both partners purified
[1] = target: human WDR5 seven tandem WD-40 domain (residues 24–334) (human, UniProt P61964 24-334)
[2] = target: WDR5 Y191F variant (residues 24–334) (human, UniProt P61964 24-334, Y191F)
[3] = target: human WDR5 seven tandem WD-40 domain (residues 24–334) (human, UniProt P61964 24-334); remark: listed apart in the source

- Kd [1]: 6.71 µM
- dH [1]: -38.5 ± 0.46 kJ/mol
- stoichiometry N [1]: 1.19
B1: Kif2A 114–120 peptide (peptide)
peptide: GSARARP
notes: also called truncated Kif2A; source: synthetic peptide (GenScript)

- Kd [1]: 0.78 µM
- dH [1]: -65.69 ± 0.544 kJ/mol
- stoichiometry N [1]: 0.91
- Kd [2]: 0.96 µM
- dH [2]: -37.66 ± 0.335 kJ/mol
- stoichiometry N [2]: 1.27
B2: Kif2A 114–122 peptide (peptide)
peptide: GSARARPSQ
notes: also called wild-type Kif2A; source: synthetic peptide (GenScript)

- Kd [1]: 3.72 µM
- dH [1]: -44.4 ± 0.586 kJ/mol
- stoichiometry N [1]: 0.94
B3: Kif2A 114–122 (S121G) peptide (peptide)
peptide: GSARARPGQ
notes: also called Kif2A^S121G; source: synthetic peptide (GenScript)

- Kd [3]: 2.16 µM
- dH [3]: -54.39 ± 0.502 kJ/mol
- stoichiometry N [3]: 0.97
Binder: GSARARPAQ [Kif2A S121A peptide]
